Experimental data as given in patent US20260097076A1 (ELPIS BIOPHARMACEUTICALS, published 2026).

Columns and labels:
[1] = target: T1, Transmembrane activator and CAML interactor (TACI) on cells (UniProt O14836 1-293, limits assumed); test: flow cytometry on MM1R cells (endogenous TACI)
T1 construct: whole, on cells; also called tumor necrosis factor receptor superfamily member 13B (TNFRSF13B)
T1 sequence (looked up): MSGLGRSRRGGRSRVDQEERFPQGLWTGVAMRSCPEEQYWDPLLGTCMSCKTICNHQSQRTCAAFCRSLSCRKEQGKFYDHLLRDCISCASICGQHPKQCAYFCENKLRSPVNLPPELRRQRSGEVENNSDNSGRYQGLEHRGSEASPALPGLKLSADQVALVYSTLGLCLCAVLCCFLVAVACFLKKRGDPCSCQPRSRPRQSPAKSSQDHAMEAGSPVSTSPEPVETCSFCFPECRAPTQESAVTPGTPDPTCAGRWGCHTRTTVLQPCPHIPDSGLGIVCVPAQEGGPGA
Method: (§1) Cells were spun down at 1200 rpm for 6 minutes at 4° C. to remove primary antibodies. Cells were then washed once with 200 μL of full medium per well. Samples were detected with premixed anti-His Biotin Streptavidin Alexa fluor 647 by adding 100 μL of diluted secondary antibody and incubated at 4° C. for 30 minutes in the dark. Samples were spun down at 1200 rpm for 5 minutes at 4° C. and washed twice with 200 μL of 1×PBS per well. Reconstituted samples in 200 μL of 1×PBS and read on Attune NxT cytometer. Analysis was done by Attune NxT software plotting the overlaying the histogram of anti-BCMA scFvs binding onto both negative and target cell lines. […] The BCMA cell binding affinity for exemplary anti-BCMA antibodies (in scFv format) was also generated with serial diluted scFvs as described above.
(§2) Anti-TACI scFv binders have been identified through Anti-TACI supernatant FACS screening assay with JVM2, MM1.R and RPMI8226 cell lines as described in above supernatant FACS screening assay. 200 nM of purified scFvs were subjected into FACS binding assay with TACI negative cell lines K562, H929 and TACI expressing cancer cell lines of JVM2, MM1.R, RPMI8226. The assay procedure and data analysis were described in Example 1 above.

[2] = target: T1, Transmembrane activator and CAML …; test: flow cytometry on RPMI8226 cells (endogenous TACI)
Method: as §1, §2

[3] = target: T1, Transmembrane activator and CAML …; test: flow cytometry on MM1S cells (endogenous TACI)
[4] = target: T1, Transmembrane activator and CAML …; test: flow cytometry on JVM2 cells (endogenous TACI)
Method: as §1, §2

soluble recombinant TACI = target: T2, soluble recombinant TACI (UniProt O14836 1-165, limits assumed); test: ELISA, recombinant TACI immobilized on 384 well plate
T2 construct: Immobilized on a 384 well plate; construct not described
T2 sequence (looked up): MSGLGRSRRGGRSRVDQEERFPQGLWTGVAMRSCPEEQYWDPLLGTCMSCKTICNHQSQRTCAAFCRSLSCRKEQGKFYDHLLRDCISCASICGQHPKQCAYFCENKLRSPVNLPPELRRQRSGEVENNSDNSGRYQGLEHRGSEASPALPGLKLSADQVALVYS
Method: Purified anti-TACI scFvs were subjected to ELISA binding assay. Recombinant TACI and negative protein were immobilized on the 384 well plate. 200 nM of anti-TACI scFv clones were serial diluted and tested for binding in the assay as described above.

- EC50 [1]: 14 nM
- EC50 [2]: 830 nM
- EC50 [3]: 46.7 nM
- EC50 [4]: 26.8 nM
B1: TC-03 (anti-TACI antibody in scFv format) (scFv, not shown: small tags and cut ends)
scFv: EVQLVESGGGLVQPGGSLRLSCATSGFTVNSDYMSWVRQSPEKGLEWVSFIYRGGSTYYADSVKGRFTVSRDTSKNTLYLQMNSLRVEDTAVYYCARGLGSSSDYWGQGTLVTVSSGGGGSGGGGSGGGGSSYELTQPHSVSESPGKTVTISCTRSSGSIANNYVQWYRHRPGSAPSTVIFEDDHRPSEVPDRFSGSIDSSSNSASLTISGLKTEDEADYYCQSYDGIDHYVFGTGTKLTVL
notes: Human scFv from mRNA display (live cell selections), VH-(G4S)3-VL
- binding result (soluble recombinant TACI): no binding (tested: 200 nM, serial diluted)
